This series deals with N[C@@H](Cc1ccc(O)c(O)c1)C(=O)O. The series can be described thus: fluorometric H2O2 production assay (peroxidase-coupled). It is filed as biochemical, Bombyx mori. The following applies: O2 co-substrate; PBS; PLP cofactor; aldehyde synthase (H2O2-producing) activity; parentheses are 95% confidence interval. From the text: fluorometric H2O2 production assay (peroxidase-coupled) on B. mori DHPAAS
Regarding B. mori DHPAAS (Bombyx mori), the Km is reported as 41.7 (36.6–47.3) µM and the kcat was 6.51 (6.27–6.76) min^−1.
The corresponding values for “B. mori DHPAAS (Bombyx mori; F79Y/N192H/Y80F)” are 27.6 (17.1–42.8) µM and 0.97 (0.87–1.09) min^−1.
B. mori DHPAAS (Bombyx mori; F79Y/Y80F): the Km is recorded as 62.3 (49.5–78.5) µM and the kcat is 4.65 (4.30–5.03) min^−1.
For the substance B. mori DHPAAS (Bombyx mori; N192H), the Km was 36.5 (32.8–40.5) µM and the kcat is reported as 1.40 (1.35–1.44) min^−1.

These data come from publication PMC6494836, “Mechanism-based tuning of insect 3,4-dihydroxyphenylacetaldehyde synthase for synthetic bioproduction of benzylisoquinoline alkaloids” (Nature Communications, 2019).
